B1: NCK2 (parent)
chain: YVERKNSLKKGSLVKNLKDTLGLG
B2: TMEM106C (parent)
chain: TVPEILVHNIVIFMRTSVKISYIG
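Note: lentivirally expressed fusions sorted by FACS into six bins by GFP to DsRed ratio, PSI derived from sequencing read proportions per bin multiplied by bin number.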

Variants of: B1
Assay: protein stability index of a GFP-peptide fusion (GPS, HEK-293T) (PSI 1-6); higher = more stable
Conditions: c terminus: a fixed tail appended
With YVERKNSLKKGSEVKNLKDTLGLG [L13E] the protein stability index was 2.87.
With YVERKNSLKKGSLAKNLKDTLGLG [V14A] the protein stability index was 2.53.
Variant YVERKNSLKKGSLVKGLKDTLGLG [N16G] has a protein stability index of 2.3.

Variants of: B2
Assay: as above
Conditions: c terminus: a fixed tail appended
DVPEILVHNIVIFMRTSVKISYIG [T1D] showed a protein stability index of 1.51.
In the case of EVPEILVHNIVIFMRTSVKISYIG [T1E], the protein stability index is reported as 2.4.
For IVPEILVHNIVIFMRTSVKISYIG [T1I], the protein stability index was 4.36.
In the case of LVPEILVHNIVIFMRTSVKISYIG [T1L], the protein stability index is reported as 2.03.
With MVPEILVHNIVIFMRTSVKISYIG [T1M] the protein stability index was 3.02.
SVPEILVHNIVIFMRTSVKISYIG [T1S] gave a protein stability index of 3.42.
Variant WVPEILVHNIVIFMRTSVKISYIG [T1W] has a protein stability index of 2.7.
In the case of TCPEILVHNIVIFMRTSVKISYIG [V2C], the protein stability index is reported as 2.31.
Variant TDPEILVHNIVIFMRTSVKISYIG [V2D] has a protein stability index of 2.5.
For TEPEILVHNIVIFMRTSVKISYIG [V2E], the protein stability index was 2.47.
For TFPEILVHNIVIFMRTSVKISYIG [V2F], the protein stability index was 2.95.
With TGPEILVHNIVIFMRTSVKISYIG [V2G] the protein stability index was 2.98.
For THPEILVHNIVIFMRTSVKISYIG [V2H], the protein stability index was 2.77.
Work on TIPEILVHNIVIFMRTSVKISYIG [V2I] yielded a protein stability index of 2.67.
Variant TKPEILVHNIVIFMRTSVKISYIG [V2K] has a protein stability index of 2.81.
For TLPEILVHNIVIFMRTSVKISYIG [V2L], the protein stability index was 3.28.
TNPEILVHNIVIFMRTSVKISYIG [V2N] gave a protein stability index of 2.01.
With TPPEILVHNIVIFMRTSVKISYIG [V2P] the protein stability index was 3.94.
With TSPEILVHNIVIFMRTSVKISYIG [V2S] the protein stability index was 2.63.
In the case of TWPEILVHNIVIFMRTSVKISYIG [V2W], the protein stability index is reported as 2.
In the case of TYPEILVHNIVIFMRTSVKISYIG [V2Y], the protein stability index is reported as 3.53.
With TVAEILVHNIVIFMRTSVKISYIG [P3A] the protein stability index was 3.18.
With TVCEILVHNIVIFMRTSVKISYIG [P3C] the protein stability index was 2.32.
Variant TVGEILVHNIVIFMRTSVKISYIG [P3G] has a protein stability index of 3.81.
In the case of TVHEILVHNIVIFMRTSVKISYIG [P3H], the protein stability index is reported as 2.52.
In the case of TVIEILVHNIVIFMRTSVKISYIG [P3I], the protein stability index is reported as 1.79.
Work on TVKEILVHNIVIFMRTSVKISYIG [P3K] yielded a protein stability index of 3.27.
In the case of TVLEILVHNIVIFMRTSVKISYIG [P3L], the protein stability index is reported as 1.85.
TVNEILVHNIVIFMRTSVKISYIG [P3N] showed a protein stability index of 1.33.
Variant TVQEILVHNIVIFMRTSVKISYIG [P3Q] has a protein stability index of 2.68.
TVREILVHNIVIFMRTSVKISYIG [P3R] showed a protein stability index of 3.41.
Work on TVSEILVHNIVIFMRTSVKISYIG [P3S] yielded a protein stability index of 3.98.
In the case of TVPDILVHNIVIFMRTSVKISYIG [E4D], the protein stability index is reported as 3.56.
TVPFILVHNIVIFMRTSVKISYIG [E4F] gave a protein stability index of 2.67.
TVPGILVHNIVIFMRTSVKISYIG [E4G] showed a protein stability index of 3.29.
TVPHILVHNIVIFMRTSVKISYIG [E4H] gave a protein stability index of 2.29.
Work on TVPIILVHNIVIFMRTSVKISYIG [E4I] yielded a protein stability index of 2.02.
With TVPKILVHNIVIFMRTSVKISYIG [E4K] the protein stability index was 2.94.
Work on TVPLILVHNIVIFMRTSVKISYIG [E4L] yielded a protein stability index of 3.55.
Variant TVPMILVHNIVIFMRTSVKISYIG [E4M] has a protein stability index of 4.55.
In the case of TVPNILVHNIVIFMRTSVKISYIG [E4N], the protein stability index is reported as 2.99.
TVPQILVHNIVIFMRTSVKISYIG [E4Q] showed a protein stability index of 2.61.
Work on TVPSILVHNIVIFMRTSVKISYIG [E4S] yielded a protein stability index of 2.88.
For TVPTILVHNIVIFMRTSVKISYIG [E4T], the protein stability index was 2.5.
In the case of TVPVILVHNIVIFMRTSVKISYIG [E4V], the protein stability index is reported as 3.21.
In the case of TVPYILVHNIVIFMRTSVKISYIG [E4Y], the protein stability index is reported as 2.81.
Work on TVPEALVHNIVIFMRTSVKISYIG [I5A] yielded a protein stability index of 2.92.
TVPEDLVHNIVIFMRTSVKISYIG [I5D] showed a protein stability index of 3.24.
TVPEELVHNIVIFMRTSVKISYIG [I5E] gave a protein stability index of 4.16.
Work on TVPEFLVHNIVIFMRTSVKISYIG [I5F] yielded a protein stability index of 3.14.
With TVPEGLVHNIVIFMRTSVKISYIG [I5G] the protein stability index was 2.54.
In the case of TVPEHLVHNIVIFMRTSVKISYIG [I5H], the protein stability index is reported as 4.38.
TVPEKLVHNIVIFMRTSVKISYIG [I5K] gave a protein stability index of 1.73.
TVPELLVHNIVIFMRTSVKISYIG [I5L] showed a protein stability index of 2.94.
Variant TVPEMLVHNIVIFMRTSVKISYIG [I5M] has a protein stability index of 2.67.
In the case of TVPENLVHNIVIFMRTSVKISYIG [I5N], the protein stability index is reported as 2.34.
Variant TVPEPLVHNIVIFMRTSVKISYIG [I5P] has a protein stability index of 3.34.
For TVPEQLVHNIVIFMRTSVKISYIG [I5Q], the protein stability index was 3.61.
With TVPERLVHNIVIFMRTSVKISYIG [I5R] the protein stability index was 2.19.
With TVPESLVHNIVIFMRTSVKISYIG [I5S] the protein stability index was 2.36.
In the case of TVPETLVHNIVIFMRTSVKISYIG [I5T], the protein stability index is reported as 3.88.
TVPEWLVHNIVIFMRTSVKISYIG [I5W] gave a protein stability index of 2.49.
TVPEYLVHNIVIFMRTSVKISYIG [I5Y] gave a protein stability index of 2.58.
TVPEIAVHNIVIFMRTSVKISYIG [L6A] gave a protein stability index of 3.67.
In the case of TVPEICVHNIVIFMRTSVKISYIG [L6C], the protein stability index is reported as 4.05.
In the case of TVPEIEVHNIVIFMRTSVKISYIG [L6E], the protein stability index is reported as 2.11.
Work on TVPEIFVHNIVIFMRTSVKISYIG [L6F] yielded a protein stability index of 2.25.
With TVPEIGVHNIVIFMRTSVKISYIG [L6G] the protein stability index was 3.13.
Variant TVPEIHVHNIVIFMRTSVKISYIG [L6H] has a protein stability index of 3.88.
Work on TVPEIIVHNIVIFMRTSVKISYIG [L6I] yielded a protein stability index of 2.59.
With TVPEIKVHNIVIFMRTSVKISYIG [L6K] the protein stability index was 2.5.
For TVPEIMVHNIVIFMRTSVKISYIG [L6M], the protein stability index was 2.78.
Work on TVPEINVHNIVIFMRTSVKISYIG [L6N] yielded a protein stability index of 2.24.
TVPEIPVHNIVIFMRTSVKISYIG [L6P] gave a protein stability index of 2.63.
With TVPEIQVHNIVIFMRTSVKISYIG [L6Q] the protein stability index was 2.44.
TVPEIRVHNIVIFMRTSVKISYIG [L6R] gave a protein stability index of 4.09.
Work on TVPEISVHNIVIFMRTSVKISYIG [L6S] yielded a protein stability index of 2.77.
In the case of TVPEITVHNIVIFMRTSVKISYIG [L6T], the protein stability index is reported as 2.83.
In the case of TVPEIVVHNIVIFMRTSVKISYIG [L6V], the protein stability index is reported as 4.06.
With TVPEIWVHNIVIFMRTSVKISYIG [L6W] the protein stability index was 2.8.
With TVPEIYVHNIVIFMRTSVKISYIG [L6Y] the protein stability index was 2.26.
With TVPEILAHNIVIFMRTSVKISYIG [V7A] the protein stability index was 3.25.
TVPEILCHNIVIFMRTSVKISYIG [V7C] showed a protein stability index of 3.89.
Variant TVPEILDHNIVIFMRTSVKISYIG [V7D] has a protein stability index of 2.53.
With TVPEILEHNIVIFMRTSVKISYIG [V7E] the protein stability index was 4.49.
Work on TVPEILFHNIVIFMRTSVKISYIG [V7F] yielded a protein stability index of 2.51.
Work on TVPEILGHNIVIFMRTSVKISYIG [V7G] yielded a protein stability index of 3.49.
Work on TVPEILHHNIVIFMRTSVKISYIG [V7H] yielded a protein stability index of 3.09.
TVPEILIHNIVIFMRTSVKISYIG [V7I] showed a protein stability index of 4.62.
TVPEILKHNIVIFMRTSVKISYIG [V7K] showed a protein stability index of 3.79.
Variant TVPEILLHNIVIFMRTSVKISYIG [V7L] has a protein stability index of 2.24.
